In publication PMC5264208:

T1: pentameric C-reactive protein (human), P02741
T1 chain: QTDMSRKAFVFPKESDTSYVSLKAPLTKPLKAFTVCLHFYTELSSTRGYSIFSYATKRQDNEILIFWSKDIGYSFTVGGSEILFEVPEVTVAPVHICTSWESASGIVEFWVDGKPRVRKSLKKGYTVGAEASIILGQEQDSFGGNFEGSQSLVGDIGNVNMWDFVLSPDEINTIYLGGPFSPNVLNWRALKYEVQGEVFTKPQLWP

T2: tissue-deposited CRP (human (endogenous in burn wound, skeletal muscle and carotid plaque tissue)), P02741
T2 chain: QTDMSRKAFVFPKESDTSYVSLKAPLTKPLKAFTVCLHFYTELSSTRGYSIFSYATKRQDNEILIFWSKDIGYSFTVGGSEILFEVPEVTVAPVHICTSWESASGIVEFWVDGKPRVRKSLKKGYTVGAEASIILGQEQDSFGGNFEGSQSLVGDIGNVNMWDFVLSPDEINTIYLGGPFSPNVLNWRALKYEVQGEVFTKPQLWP


Experiments:
[1] = biological target: T1, pentameric C-reactive protein (human), …; experiment: native gel or EMSA; BN-PAGE (4-16% Bis-Tris) of pCRP (40 ug/ml) pelleted with liposomes or microvesicles after 1 h at 37 °C in 25 mM Tris-HCl pH 7.4, 150 mM NaCl, 2 mM CaCl2; pCRP and mCRP controls beside it; details: remark: other sources report otherwise
[2] = biological target: T2, tissue-deposited CRP (human (endogenous …)); experiment: native gel or EMSA; SDS-PAGE with 1/20 of the usual SDS content (8-13% gels), burn wound lysates loaded in native buffer; control pCRP and mCRP beside them; Western blot with anti-CRP-8; details: remark: other sources report otherwise

| Binder | stoichiometry N [1] | stoichiometry N [2] |
| --- | --- | --- |
| pentameric C-reactive protein, P02741 19-224 (natural protein) QTDMSRKAFVFPKESDTSYVSLKAPLTKPLKAFTVCLHFYTELSSTRGYSIFSYATKRQDNEILIFWSKDIGYSFTVGGSEILFEVPEVTVAPVHICTSWESASGIVEFWVDGKPRVRKSLKKGYTVGAEASIILGQEQDSFGGNFEGSQSLVGDIGNVNMWDFVLSPDEINTIYLGGPFSPNVLNWRALKYEVQGEVFTKPQLWP | 5 |  |
| tissue-deposited CRP, P02741 19-224 (natural protein) QTDMSRKAFVFPKESDTSYVSLKAPLTKPLKAFTVCLHFYTELSSTRGYSIFSYATKRQDNEILIFWSKDIGYSFTVGGSEILFEVPEVTVAPVHICTSWESASGIVEFWVDGKPRVRKSLKKGYTVGAEASIILGQEQDSFGGNFEGSQSLVGDIGNVNMWDFVLSPDEINTIYLGGPFSPNVLNWRALKYEVQGEVFTKPQLWP |  | 5 |
